The results in this text go back to PMC6650273 (Nature cell biology, 2019).

The assay has as its target FLAG-Tor (Dictyostelium discoideum, UniProt Q86C65 1-2380). The assay can be described thus: pull-down.

Sequence of FLAG-Tor (Q86C65 whole entry): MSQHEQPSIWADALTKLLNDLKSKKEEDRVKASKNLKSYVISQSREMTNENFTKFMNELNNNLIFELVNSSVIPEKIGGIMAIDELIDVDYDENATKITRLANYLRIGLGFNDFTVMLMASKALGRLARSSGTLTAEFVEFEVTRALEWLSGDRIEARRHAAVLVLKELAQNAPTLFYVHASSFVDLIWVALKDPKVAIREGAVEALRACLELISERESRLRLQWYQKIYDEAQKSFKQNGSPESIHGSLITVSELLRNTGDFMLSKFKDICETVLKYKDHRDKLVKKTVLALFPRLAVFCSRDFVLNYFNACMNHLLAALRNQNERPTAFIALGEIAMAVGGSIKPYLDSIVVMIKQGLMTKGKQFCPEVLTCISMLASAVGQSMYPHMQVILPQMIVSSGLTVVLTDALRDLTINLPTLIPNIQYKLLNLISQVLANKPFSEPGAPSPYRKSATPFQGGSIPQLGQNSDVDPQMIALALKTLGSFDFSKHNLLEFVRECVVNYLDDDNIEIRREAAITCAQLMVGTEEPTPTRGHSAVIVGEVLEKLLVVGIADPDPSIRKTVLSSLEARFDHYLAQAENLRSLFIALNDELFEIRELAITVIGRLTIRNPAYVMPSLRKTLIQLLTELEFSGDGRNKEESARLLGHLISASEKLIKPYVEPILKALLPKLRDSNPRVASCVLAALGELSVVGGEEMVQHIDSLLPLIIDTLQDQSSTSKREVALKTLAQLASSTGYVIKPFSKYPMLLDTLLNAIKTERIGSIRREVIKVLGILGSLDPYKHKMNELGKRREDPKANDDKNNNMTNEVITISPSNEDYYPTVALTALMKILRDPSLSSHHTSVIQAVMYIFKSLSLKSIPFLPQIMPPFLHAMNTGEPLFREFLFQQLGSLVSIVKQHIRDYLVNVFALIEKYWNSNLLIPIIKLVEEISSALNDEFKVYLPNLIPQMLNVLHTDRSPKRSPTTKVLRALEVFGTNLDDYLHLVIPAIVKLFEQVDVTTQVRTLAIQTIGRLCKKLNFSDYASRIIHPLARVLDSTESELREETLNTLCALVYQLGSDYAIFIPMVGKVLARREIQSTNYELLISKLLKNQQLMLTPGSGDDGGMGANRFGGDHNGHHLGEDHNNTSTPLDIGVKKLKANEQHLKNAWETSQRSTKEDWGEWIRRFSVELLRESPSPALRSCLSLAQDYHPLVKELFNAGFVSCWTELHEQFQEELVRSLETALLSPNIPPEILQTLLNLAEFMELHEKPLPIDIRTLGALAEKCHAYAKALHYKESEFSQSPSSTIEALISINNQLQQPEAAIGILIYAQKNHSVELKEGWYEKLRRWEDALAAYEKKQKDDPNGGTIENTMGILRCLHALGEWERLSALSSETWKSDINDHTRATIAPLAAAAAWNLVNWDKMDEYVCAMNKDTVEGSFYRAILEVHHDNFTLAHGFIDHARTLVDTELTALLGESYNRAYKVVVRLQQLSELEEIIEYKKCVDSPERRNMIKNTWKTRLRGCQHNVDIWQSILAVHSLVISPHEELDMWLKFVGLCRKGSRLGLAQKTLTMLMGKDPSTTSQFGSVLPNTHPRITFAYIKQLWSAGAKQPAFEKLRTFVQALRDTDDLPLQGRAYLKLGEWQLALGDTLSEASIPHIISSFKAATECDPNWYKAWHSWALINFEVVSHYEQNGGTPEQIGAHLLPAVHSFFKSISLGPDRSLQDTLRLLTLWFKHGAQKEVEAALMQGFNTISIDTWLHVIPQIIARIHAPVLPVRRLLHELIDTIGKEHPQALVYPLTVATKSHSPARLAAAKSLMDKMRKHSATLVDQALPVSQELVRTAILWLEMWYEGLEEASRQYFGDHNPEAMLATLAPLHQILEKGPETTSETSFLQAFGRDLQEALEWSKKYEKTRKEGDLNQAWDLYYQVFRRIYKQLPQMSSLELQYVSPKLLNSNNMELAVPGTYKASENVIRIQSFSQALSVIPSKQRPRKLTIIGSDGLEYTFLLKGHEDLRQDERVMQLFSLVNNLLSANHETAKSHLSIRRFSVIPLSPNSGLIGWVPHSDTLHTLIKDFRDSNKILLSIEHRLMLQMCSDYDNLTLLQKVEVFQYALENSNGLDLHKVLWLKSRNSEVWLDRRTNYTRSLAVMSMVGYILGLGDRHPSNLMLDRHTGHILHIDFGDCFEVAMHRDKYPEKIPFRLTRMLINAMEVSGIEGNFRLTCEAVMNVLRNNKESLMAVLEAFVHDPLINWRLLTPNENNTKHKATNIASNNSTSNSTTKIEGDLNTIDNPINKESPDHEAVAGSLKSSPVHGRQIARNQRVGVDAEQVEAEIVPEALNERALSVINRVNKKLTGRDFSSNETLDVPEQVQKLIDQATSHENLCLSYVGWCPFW

B1: GFP-RacE_(T25N), GDP-bound, purified after chemoattractant stimulation (Ser192 phosphorylated) (natural protein)
chain: MSEDQGSGATRVKLVVVGDGAVGKNCLLICYAQNDFPVDYVPTVFENYTATRKRGNEDIKVHLWDTAGQEEYDRLRPLSYPGADVVLLCFSTISQSSYEAIRDKWAPEVNHYIPDVPSILVGTKIDLREQQHPDPNSGKFEPITADMGISMQKQIKAKKYLEVSAKTRQGLEEVFSAAIEIVLESRGMDKKSQDGSSSASGVPSGDKPTKGKAGKKKSGCIIL
modifications: phosphoserine at 192 (chemoattractant-induced)
With B1, the binding result was “binds”.
